According to publication PMC5446653:

Molecular target: human coxsackievirus and adenovirus receptor on CHO-CAR cells (human) (UniProt P78310)

soluble recombinant HAdV-5 fiber knob Y477A (from UniProt P11818 1-581) (domain or fragment)
inhibition of HAdV-5-EGFP transduction of CHO-CAR cells (EGFP-positive cells by flow cytometry) after preincubation with FK*, 0.0001 to 100 μg/10^5 cells, 1 h at 4°C (μg/10^5 cells): > 100
